Results on 16 sequences are retold here after a protein production outcome set (Wang et al. 2014).

The nature of this data set: label from the status in PepcDB records.
For the sequence “MQYPPRLGFGTWQAPPEAVQTAVETALMTGYRHIDCAYVYQNEEAIGRAFGKIFKDASSGIKREDVWITSKLWNYNHRPELVREQCKKTMSDLQVDYLDLFLVHWPLAFVRNDVGDLFPKDAEGRAMLEKVPLADTWRAMEQLVEEGLVKHIGVSNYTVPLLADLLNYAKIKPLVNQIEIHPWHPNDATVKFCLDNGIGVTAYSPMGGSYADPRDPSGTQKNVILECKTLKAIADAKGTSPHCVALAWHVKKWNTSMYSVIPKSQTPARIEANFKCTEVQLSDDDMDAINNIHLNKRIRFCDPAIFWKVPLFD”, the protein production result is “not failed”.

On to “MLEEYEKKRDFNKTSEPPARGEEKNSDKPVFVVQRHDATNLHYDFRLEMDGVLKSWAVPKEPPKSPGTRRLAIETEDHPLGYADFEGEIPEGQYGAGRVEIWDRGTFELLKRNEKEIIITLHGEELEGDYVLIKTKYGKEDKGWLFFKKKTGLEHHHHHH”, for which the protein production entry was “not failed”.

On to “MYGRKGYQLIKDFATGEKGQLKPFNSKLFDETIEECDQNHHLIQSLIRKMQQEGLDVQNNRNADHYGALIHHLALIRNKRCLMAYVYNRAEIVRDLAWRVGLELLDLPSEIQEKLTTLEKEYFKNHSVALKSYMGKVGIELNVDMVPPKDPYIKVRILDDIDEGIVLSDKTTNFARHSMHFLKRTDAEPYIARGQMEELTG”, for which the protein production entry is given as “failed”.

Regarding “MIDVKSIILIVLDGLGDRPGEILGYRTPLQAAYHPNMNRMASLGMTGLMHPISPGIRSGSDTSHMSLLGYDPRVYYQGRGPFEALGLHMDMKPGDLAFRANFATNRDGKIIDRRAGRINAGNDQLASAISIDIGNYKFRVKSGVEHRAALVVSGPNLSDKISDSDPHSEGKPPEPIRPLDPSADSTAKIMNEYLKRIREILRDHPVNVEREKNGQIPGNELLIRSAGKVPDIPSFQEKNGITGACVVGSPWLKGLCRLLGMAVIDVPGAAGTINSNYTGKIKTAIDASKRYDFVLVNIKATDVAGHDGDYELKRRVIEDIDIAMEPLLGQSDRIVVAITGDHSTPCSVKDHSGDPVPIVFYTDGIYSDDVKLFDEVSAMKGALRITTQDVLNILMEMAGRAEKFGS”, the protein production entry is “not failed”.

Turning to “MIPLSESFESGIPAIWKTIDADGDGYNWMHLTNFTGQSGLCVSSASYIGGVGALTPDNYLITPELKLPTDALVEIIYWVCTQDLTAPSEHYAVYSSSTGNNAADFVNLLYEETLTAKRIQSPELIRGNRTQGVWYQRKVVLPNDTKYVAFRHFNSTDNFWLNLDEVSILYTPLPRRA”, the protein production result was “not failed”.

Consider “MLNAIKFRIYPNAQQKELISKHFGCSRVVYNYFLDYRQKQYAKGIKETYFTMQKVLTQIKRQEKYHYLNECNSQSLQMALRQLVSAYDNFFSKRARYPKFKSKKNAKQSFAIPQNIETKTETQTIALPKFKEGIKAKLHRDLPKDSVIKQAFISCIADQYFCSLSYETKEPIPKPTIIKKAVGLDMGLRTLIVTSDKIGYPHIRFYQKLEKKLTKAQRRLSKKVKDSNNRKKQAKKVSRLHLACSNTRDDYLHKISNEITNQYDLIGVETLNVKALMRTYHSKSLANASWGKFLTMLEYKAQRKGKTLLSIDRFFPSSQLCSYCGVNTGKKHESITKFTCPHCQTTHHRDYNASVNIRNYALGMLDDRHKVKTDKARVGIIRSDYTHHTNECVKACGASSNGVSSKYGNILDLASYGAMKQEKAQSL”, for which the protein production result was “failed”.

Consider “MPSQDWERSVLGCSMQVGQGWCCVDLSDISCVQDVAKEVLDCYGCVDILINNASVKVKGPAHKISLELDKKIMDANYFGPITLTKVLLPNMISRRTGQIVLVNNIQAKFGIPFRTAYAASKHAVMGFFDCLRAEVEEYDVVVSTVSPTYIRSYRASPEQRNWETSICKFFCRKLAYGVHPVEVAEEVMRTVRRKKQEVFMANPVPKAAVFIRTFFPEFFFAVVACGVKEKLNVPEEG”, for which the protein production result was “failed”.

Take “AEMKTYSHRTMPSACTLVMCSSVESGLPGRDGRDGREGPRGEKGDPGLPGAAGQAGMPGQAGPVGPKGDNGSVGEPGPKGDTGPSGPPGPPGVPGPAGREGPLGKQGNIGPQGKPGPKGEAGPKGEVGAPGMQGSAGARGLAGPKGERGVPGERGVPGNTGAAGSAGAMGPQGSPGARGPPGLKGDKGIPGDKGAKGESGLPDVASLRQQVEALQGQVQHLQAAFSQYKKVELFPNGQSVGEKIFKTAGFVKPFTEAQLLCTQAGGQLASPRSAAENAALQQLVVAKNEAAFLSMTDSKTEGKFTYPTGESLVYSNWAPGEPNDDGGSEDCVEIFTNGKWNDRACGEKRLVVCEF”: the protein production entry is recorded as “failed”.

“MFIREEEQMKRMIITIGRQSGSSGRKVGELLAERLSLPLYGKAELQKIAEGTDDYEEVQAFYEEEPVNSLLYAIAMSQFEQEVGRIPFQRIRELASKESCIIIGRCAGHIFREDPEAVRVFIHADPKIRVQRIMEREGLSETKAKKFLEDTDSRRASFHKYYTKQEWGLAQDYELCLDSGVLGIEGTVEVLTEYLRFRGFLGNE”: the protein production result is “failed”.

As to “MSEPKKHKDAAVDDRAVQPSRRNFLKFGASGIAAATLSTWIPSDGMLQAAPVAPVLPVVEDRDAPAAGEHRIQLKVNGQVHTLNVPANAVLLDVLRDRLQLTGTKKGCDHGQCGACTLLVNGVAINSCLSIAVQHQGDSITTIEGLAENGKLHPVQEAFWEHDAYQCGYCTSGQIMSAVAILKDPNLGSDDASVREAMSGNICRCGAYKNILSAVQSARSKMGAV”, the protein production result was “failed”.

With “SVPKRQRIRKLQIRNIPPHLQWEVLDSLLVQYGVVESCEQVNTDSETAVVNVTYSSKDQARQALDKLNGFQLENFTLKVAYIPDEMAAQ”, the protein production result was “not failed”.

“MILLVPILIITLMYFMFENVPHRPGTPSGFNTACLVLLGLFPLFVMFVITAITMQRERASGTLERILTTPLRRLDLLAGYGTAFSIAAAAQATLACIVAFWFLGFDTAGSPVWVFAIAIVNAVLGVGLGLLCSAFARTEFQAVQFIPLVMVPQLLLAGIIVPRALMPTWLEWISNVMPASYALEALQQVGAHPELTGIAVRDVVVVLSFAVASLCLAAVTLRRRTS”: the protein production result was “failed”.

Regarding “KITRLTTYRLPPRWMFLKVETDEGVTGWGEPVIEGRARTVEAAVHELSDYLIGQDPSRINDLWQTMYRAGFYRGGPILMSAIAGIDQALWDIKGKVLGVPVYELLGGLVRDKMRTYSWVGGDRPADVIAGMKALQAGGFDHFKLNGCEEMGIIDTSRAVDAAVARVAEIRSAFGNTVEFGLDFHGRVSAPMAKVLIKELEPYRPLFIEEPVLAEQAETYARLAAHTHLPIAAGERMFSRFDFKRVLEAGGVSILQPDLSHAGGITECVKIAAMAEAYDVALAPHCPLGPIALAACLHVDFVSWNATLQEQSMGIHYNKGAELLDYVRNKADFALEGGYIRPPRLPGLGVDIDEALVIERSKEAPDWRNPVWRHADGSVAEW”, the protein production result is “not failed”.

As for “MRFKAELMNAPEMRRALYRIAHEIVEANKGTEGLALVGIHTRGIPLAHRIARFIAEFEGKEVPVGVLDITLYRDDLTEIGYRPQVRETRIPFDLTGKAIVLVDDVLYTGRTARAALDALIDLGRPRRIYLAVLVDRGHRELPIRADFVGKNVPTSRSEVVKVKVEEVDGEDRVELWEREGA”, the protein production entry is “not failed”.

For “DYIEMKVPAQPEYVGIIRLTLSGVASRMGYTYDEIEDLKIAVSEACTNAVQHAYKEDKNGEVSIRFGVFEDRLEVIVADEGDSFDFDQKQQDLGPYTPSHTVDQLSEGGLGLYLMETLMDEVRVQNHSGVTVAMTKYLNGERVDHDTT”, the protein production entry is “failed”.

With “AGVMTGAKFTQIQFGMTRQQVLDIAGAENCETGGSFGDSIHCRGHAAGDYYAYATFGFTSAAADAKVDSKSQEKLLAPSAPTLTLAKFNQVTVGMTRAQVLATVGQGSCTTWSEYYPAYPSTAGVTLSLSCFDVDGYSSTGAYRGSAHLWFTDGVLQGKRQWDLV”, the protein production entry is recorded as “not failed”.
